{"source": "patent US10286050B2", "about": "(The United States of America, as represented by the …, priority 2013, dated 2019)", "key": {"[1]": {"experiment": "Storage stability of vialed product", "assay_type": "physicochemical", "description": "Stability and Storage: KLH-HMW is stable for at least 12 months when stored at 2 to 8° C.\n(§1) Stability and Storage: The finished injectable dosage forms are stored in the freezer (−70′C) for long-term storage. Intact vials are stable for at least 6 months when stored at controlled room temperature (15° C.-30° C.) or in the refrigerator (2° C.-8° C.), and for at least 36 months when stored in the freezer (−10° C. to −25° C. and −70° C.). The peptide vial contains no preservatives; once the peptide vial is entered, unused peptide solution is discarded after 3 hours.\nas §1, with “(−70° C.)” for “(−70′C)”, “C.), at least 9 months when stored” for “C.) or”"}, "HLA-A2": {"target": "HLA-A2 (Homo sapiens, UniProt P04439, D140Y/D185E/D98H/E176V/E277Q/G131W/G231S/I119V/I121R/I166T/I218V/L300P/L318F/N151K/N90K/P208A/P217A/Q86G/Q94H/R138H/R169H/T345S)", "settings": "cited from earlier work"}, "[2]": {"system": "A2K^b transgenic mice (expressing human HLA-A*0201)", "settings": "cited from earlier work"}, "human T cells": {"system": "human T cells", "settings": "cited from earlier work; for recognition of peptide-pulsed targets by peptide-specific human T cells: human T cells specific for the named peptide"}, "[3]": {"settings": "controlled room temperature (15° C.-30° C.)"}, "[4]": {"settings": "freezer (−10° C. to −25° C. and −70° C.)"}}, "note": "“Also recorded” adds a separate entry of the source."}
{"sequence": "FVFLRNFSL [TARP 27-35]", "values": [{"measurement": "stability of intact vials", "setting": "[1]; [3]", "value": "at least 6 months"}, {"measurement": "stability of intact vials", "setting": "[1]; [4]", "value": "at least 36 months"}, {"measurement": "stability of intact vials", "setting": "[1]; refrigerator (2° C.-8° C.)", "value": "at least 6 months"}, {"measurement": "binding affinity relative to TARP 29-37", "setting": "HLA-A2; HLA-A2 epitopes, fold greater than TARP 29-37", "value": 10, "unit": "times"}, {"measurement": "level of CD8+ T cell response", "setting": "[2]; A2K^b transgenic mice", "value": "higher level of CD8+ T cell response than TARP29-37"}, {"measurement": "immunogenicity in A2K^b transgenic mice", "setting": "[2]; dendritic cells pulsed with the peptides or DNA encoding the peptides", "value": "immunogenic"}, {"measurement": "recognition of peptide-pulsed targets by peptide-specific human T cells", "setting": "human T cells", "value": "recognized targets pulsed with that sequence"}]}
{"sequence": "FLRNFSLMV [TARP 29-37-9V]", "values": [{"measurement": "stability of intact vials", "setting": "[1]; [3]", "value": "at least 6 months"}, {"measurement": "stability of intact vials", "setting": "[1]; [4]", "value": "at least 36 months"}, {"measurement": "stability of intact vials", "setting": "[1]; refrigerator (2° C.-8° C.)", "value": "at least 9 months"}, {"measurement": "change of binding affinity to HLA-A2 by epitope enhancement", "setting": "HLA-A2; amino acid substitution versus wild-type peptide", "value": "lower binding affinity to HLA-A2 than TARP29-37-3A; also recorded: did enhance the binding affinity compared with the wild-type peptide"}, {"measurement": "percentage of TARP-specific CD8+ T cells", "setting": "[2]; A2K^b transgenic mice, versus wild type sequence", "value": "higher percentage of TARP-specific CD8^+ T cells than the wild type sequence"}, {"measurement": "recognition of peptide-pulsed targets by peptide-specific human T cells", "setting": "human T cells", "value": "recognized targets pulsed with all three peptides equally well"}, {"measurement": "immunogenicity in human T cells", "setting": "human T cells; human cells", "value": "immunogenic"}]}
